# From PMC4491196
# Target: Dnmt3a (ADD domain, ADD3a) ADD domain, 479-610 or 476-611 (UniProt Q9Y6K1)
# Assay: biotin-peptide pull-down, Coomassie
# Settings: reference: unmodified H3 peptide; sites S10
substance,measurement,value
histone H3 (N-terminal peptides) (from UniProt P68431) H3S10ph peptide,binding against the reference,same
